Data reported in patent US20250334594A1 (ELEDON PHARMACEUTICALS, published 2025).

What was measured:
[1] = molecular target: recombinant human FcγRI (human) (UniProt P12314); test: ELISA: antibody coated (2 µg/ml), recombinant human FcγRI titrated, mouse anti-CD64 + HRP anti-mouse IgG, A450
[2] = molecular target: control protein CTLA4-IgG1 (UniProt P16410 38-161, limits assumed); test: sandwich ELISA: protein coated (2 µg/ml), huCD40L titrated, biotinylated goat anti-CD40L polyclonal + streptavidin-HRP, A450
control protein CTLA4-IgG1, sequence (P16410 other isoform, or with tags, fused parts or gaps limits assumed): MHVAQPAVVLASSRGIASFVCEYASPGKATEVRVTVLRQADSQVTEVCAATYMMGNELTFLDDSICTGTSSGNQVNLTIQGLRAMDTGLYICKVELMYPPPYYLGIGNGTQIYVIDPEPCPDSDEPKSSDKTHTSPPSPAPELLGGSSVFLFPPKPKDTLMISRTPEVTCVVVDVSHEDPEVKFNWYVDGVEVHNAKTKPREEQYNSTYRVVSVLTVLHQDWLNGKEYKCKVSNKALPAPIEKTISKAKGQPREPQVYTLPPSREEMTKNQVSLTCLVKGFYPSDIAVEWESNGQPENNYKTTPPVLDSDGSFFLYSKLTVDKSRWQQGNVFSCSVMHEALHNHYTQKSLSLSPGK

recombinant human FcγRI (human), sequence (P12314 16-288 limits assumed): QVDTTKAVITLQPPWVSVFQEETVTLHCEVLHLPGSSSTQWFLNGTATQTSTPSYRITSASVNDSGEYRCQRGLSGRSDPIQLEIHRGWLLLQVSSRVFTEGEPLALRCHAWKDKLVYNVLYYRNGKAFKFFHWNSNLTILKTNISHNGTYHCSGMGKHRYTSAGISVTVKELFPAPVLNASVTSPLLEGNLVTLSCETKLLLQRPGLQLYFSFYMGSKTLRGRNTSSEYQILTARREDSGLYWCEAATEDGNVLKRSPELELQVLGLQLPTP

With “anti-CD40L antibody 5c8 (reference antibody)” the EC50 (read off the curve) [1] was 0.2 µg/mL.

B1: recombinant human CD40L protein (Santa Cruz Biotechnology) (ligand, UniProt P29965 113-261, looked up)
chain: MQKGDQNPQIAAHVISEASSKTTSVLQWAEKGYYTMSNNLVTLENGKQLTVKRQGLYYIYAQVTFCSNREASSQAPFIASLCLKSPGRFERILLRAANTHSSAKPCGQQSIHLGGVFELQPGASVFVNVTDPSQVSHGTGFTSFGLLKL
notes: Bought reagent; also called CD154
B1: no binding (tested: 2 micrograms/mL) [2].
